Assay results from the supplement of paper PMC6379048.

What was measured:
Assay in all cases: EC50 of free RNA motif oligo competing protein binding to immobilised probe
[1] = target: T1, RBMS1 (UniProt P29558)
T1 sequence: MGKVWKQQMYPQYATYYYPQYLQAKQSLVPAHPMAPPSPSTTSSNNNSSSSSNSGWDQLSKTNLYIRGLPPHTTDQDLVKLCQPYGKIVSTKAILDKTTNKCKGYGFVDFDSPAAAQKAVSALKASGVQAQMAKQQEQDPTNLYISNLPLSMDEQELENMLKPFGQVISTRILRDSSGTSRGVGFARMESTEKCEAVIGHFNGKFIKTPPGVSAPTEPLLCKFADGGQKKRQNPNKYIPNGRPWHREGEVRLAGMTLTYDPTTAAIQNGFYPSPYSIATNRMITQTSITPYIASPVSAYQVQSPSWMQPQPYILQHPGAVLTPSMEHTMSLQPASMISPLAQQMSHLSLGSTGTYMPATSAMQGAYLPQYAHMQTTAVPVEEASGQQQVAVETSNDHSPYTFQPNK
How it was run: (§1)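 Kd was calculated as EC50, taken from a four-parameter log-logistic fit, multiplied by a protein-dependent depletion factor. The assay used HEK293-FT lysate (2.5 mg protein/well) pre-incubated for 1 h at 4°C with free RNA oligos (0 nM to 30 μM), then incubated for 30 min at 4°C with the matching oligos bound through a 5′-amino-C6 linker to NHS-Sepharose beads. Bound proteins were measured by label-free LC-MS/MS and normalised to the control.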

[2] = target: T2, AQR (UniProt O60306)
T2 sequence: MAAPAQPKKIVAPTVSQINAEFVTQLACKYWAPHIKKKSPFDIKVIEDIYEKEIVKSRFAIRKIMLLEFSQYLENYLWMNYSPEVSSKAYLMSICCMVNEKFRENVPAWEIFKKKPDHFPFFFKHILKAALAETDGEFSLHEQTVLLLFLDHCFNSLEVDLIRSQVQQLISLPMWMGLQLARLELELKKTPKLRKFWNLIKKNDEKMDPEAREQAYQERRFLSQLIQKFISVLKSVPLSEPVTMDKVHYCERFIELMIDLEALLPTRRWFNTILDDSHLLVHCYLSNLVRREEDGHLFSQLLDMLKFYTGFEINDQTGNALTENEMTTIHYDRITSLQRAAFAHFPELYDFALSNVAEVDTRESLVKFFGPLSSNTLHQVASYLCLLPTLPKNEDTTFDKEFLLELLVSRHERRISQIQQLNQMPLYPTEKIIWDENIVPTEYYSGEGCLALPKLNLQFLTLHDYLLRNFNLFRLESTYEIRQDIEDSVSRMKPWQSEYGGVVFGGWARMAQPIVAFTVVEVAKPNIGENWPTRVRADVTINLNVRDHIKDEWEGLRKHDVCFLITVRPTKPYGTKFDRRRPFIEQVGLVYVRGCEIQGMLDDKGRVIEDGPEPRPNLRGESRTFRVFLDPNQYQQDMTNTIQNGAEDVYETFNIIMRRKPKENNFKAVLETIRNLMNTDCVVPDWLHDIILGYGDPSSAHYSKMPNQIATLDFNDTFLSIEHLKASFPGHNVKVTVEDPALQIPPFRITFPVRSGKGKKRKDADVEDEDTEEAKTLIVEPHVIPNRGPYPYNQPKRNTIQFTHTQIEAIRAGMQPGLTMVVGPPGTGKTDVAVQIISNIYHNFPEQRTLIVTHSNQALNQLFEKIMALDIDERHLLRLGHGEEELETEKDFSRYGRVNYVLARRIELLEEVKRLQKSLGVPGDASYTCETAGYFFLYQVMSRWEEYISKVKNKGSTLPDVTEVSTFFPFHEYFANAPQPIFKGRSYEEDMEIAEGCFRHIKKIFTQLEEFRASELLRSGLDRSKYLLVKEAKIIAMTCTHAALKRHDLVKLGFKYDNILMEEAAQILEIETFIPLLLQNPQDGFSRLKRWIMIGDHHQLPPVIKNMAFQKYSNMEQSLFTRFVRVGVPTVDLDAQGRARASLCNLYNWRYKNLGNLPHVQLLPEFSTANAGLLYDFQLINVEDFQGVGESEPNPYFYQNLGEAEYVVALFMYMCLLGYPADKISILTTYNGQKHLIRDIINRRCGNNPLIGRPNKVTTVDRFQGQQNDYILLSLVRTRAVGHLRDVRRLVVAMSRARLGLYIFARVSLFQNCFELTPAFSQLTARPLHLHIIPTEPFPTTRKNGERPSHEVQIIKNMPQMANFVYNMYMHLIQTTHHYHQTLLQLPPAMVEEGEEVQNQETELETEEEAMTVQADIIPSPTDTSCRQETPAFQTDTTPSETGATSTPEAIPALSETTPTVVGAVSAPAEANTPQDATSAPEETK
How it was run: as §1

[3] = target: T3, ISY1 (UniProt Q9ULR0)
T3 sequence: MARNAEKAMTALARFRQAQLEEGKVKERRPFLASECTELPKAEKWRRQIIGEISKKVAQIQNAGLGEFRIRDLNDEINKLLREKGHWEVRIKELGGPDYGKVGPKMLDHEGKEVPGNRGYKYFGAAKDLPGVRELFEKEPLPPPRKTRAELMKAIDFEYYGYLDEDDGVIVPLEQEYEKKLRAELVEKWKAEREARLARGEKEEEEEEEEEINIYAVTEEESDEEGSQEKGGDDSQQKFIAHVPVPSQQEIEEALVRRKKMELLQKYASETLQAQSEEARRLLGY
How it was run: as §1

[4] = target: HNRNPAB (UniProt Q99729)
How it was run: as §1

Chain of HNRNPAB (Q99729 whole entry): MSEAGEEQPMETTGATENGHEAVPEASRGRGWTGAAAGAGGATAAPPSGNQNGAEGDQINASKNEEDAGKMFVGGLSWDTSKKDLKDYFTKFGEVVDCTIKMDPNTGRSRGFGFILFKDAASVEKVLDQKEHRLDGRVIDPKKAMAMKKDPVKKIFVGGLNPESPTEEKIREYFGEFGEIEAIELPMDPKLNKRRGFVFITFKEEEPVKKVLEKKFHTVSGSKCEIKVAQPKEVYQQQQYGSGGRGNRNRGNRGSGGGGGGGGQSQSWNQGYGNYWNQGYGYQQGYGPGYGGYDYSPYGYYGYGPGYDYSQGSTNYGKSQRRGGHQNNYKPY

Sequence | EC50 [1] [nM] | EC50 [2] [nM] | EC50 [3] [nM] | EC50 [4] [nM]
AAUAAA | 1570 | 877 | 914 | 3010
UAUUUAU | 458 | 706 | 724 | 3090
